Experimental data from PMC8740702.

Experiments:
[1] = molecular target: X. citri VirD4 all-alpha domain (VirD4AAD) (Xanthomonas citri); assay: SEC-MALS
[2] = molecular target: X. citri VirD4 all-alpha domain (VirD4AAD) (Xanthomonas citri); assay: ITC

Row | Substance | stoichiometry N [1] | Kd [2]
1 | X-Tfe^XAC2609 XVIPCD (XAC2609_(XVIPCD), residues 311–431) (from UniProt A0AAI7ZGC7 311-431) (domain or fragment) | 1 | –
2 | XAC2609_(XVIPCD) H315A/P316A/D317A (from UniProt A0AAI7ZGC7 311-431) (domain or fragment) | – | 1.2 µM
3 | full-length X-Tfe^XAC2609 (from UniProt A0AAI7ZGC7 1-431) (natural protein) | – | 0.4 µM
4 | XAC2609_(XVIPCD) D383A/P384A (from UniProt A0AAI7ZGC7 311-431) (domain or fragment) | – | 28 µM
5 | XAC2609_(XVIPCD) D363A (from UniProt A0AAI7ZGC7 311-431) (domain or fragment) | – | 29 µM
6 | XAC2609_(XVIPCD)Δ20 (residues 311–411) (from UniProt A0AAI7ZGC7 311-411) (domain or fragment) | 1 | –
